Reference: publication PMC6123711, “Conformational signatures in β-arrestin2 reveal natural biased agonism at a G-protein-coupled receptor” (Communications Biology, 2018)

Key:
[1] = system: mice; details: cited from earlier work
Text: (§1) G-protein-coupled receptors (GPCRs) are the largest family of cell surface receptors that communicate extracellular stimuli to the cell interior[1]. Biased ligands are of particular interest because they offer the possibility to design a novel class of therapeutic agents. In some GPCRs, biased ligands that preferentially activate G-protein-dependent signaling have therapeutic potential. […] Most descriptions of biased ag ...

[2] = molecular target: T1, Galr2–β-arrestin2 complex (Homo sapiens, UniProt O43603); assay: Reversal assay for dissociation kinetics; type: cell-based
T1 construct: expressed in transfected cells; host or cells: HEK293 cells, transient transfection with Lipofectamine 2000; b62 only says 'the cells'
T1 sequence (O43603 whole entry): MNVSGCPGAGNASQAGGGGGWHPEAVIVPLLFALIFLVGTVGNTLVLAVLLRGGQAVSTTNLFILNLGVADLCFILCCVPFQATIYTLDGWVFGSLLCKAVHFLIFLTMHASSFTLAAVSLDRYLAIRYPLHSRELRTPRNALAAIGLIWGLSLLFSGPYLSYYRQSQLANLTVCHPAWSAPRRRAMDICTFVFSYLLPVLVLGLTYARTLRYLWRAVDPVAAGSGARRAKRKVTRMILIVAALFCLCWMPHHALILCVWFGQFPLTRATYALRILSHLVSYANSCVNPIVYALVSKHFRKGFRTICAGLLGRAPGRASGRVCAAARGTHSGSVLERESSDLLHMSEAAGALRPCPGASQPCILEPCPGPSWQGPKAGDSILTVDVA
T1 sequence (P32121 whole entry partner): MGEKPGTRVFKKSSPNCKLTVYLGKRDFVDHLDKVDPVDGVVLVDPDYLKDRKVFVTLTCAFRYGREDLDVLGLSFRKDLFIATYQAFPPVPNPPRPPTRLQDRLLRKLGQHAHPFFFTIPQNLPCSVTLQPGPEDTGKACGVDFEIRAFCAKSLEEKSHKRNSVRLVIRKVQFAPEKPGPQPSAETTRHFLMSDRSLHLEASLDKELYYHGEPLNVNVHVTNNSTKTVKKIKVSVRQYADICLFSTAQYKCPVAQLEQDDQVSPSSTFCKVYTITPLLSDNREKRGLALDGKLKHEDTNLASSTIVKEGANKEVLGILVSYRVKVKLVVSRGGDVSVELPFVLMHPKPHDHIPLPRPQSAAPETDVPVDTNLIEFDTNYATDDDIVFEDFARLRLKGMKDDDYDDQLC
Experimental: The decay of the luminescent signal may reflect dissociation rate of ligand from Galr2 as the β-arrestin2 response returns to basal levels in washout experiments.
Ligand removal was performed by simply changing the medium containing no ligand and then immediately continue measuring luminescence. Samples with no ligand removal were used as a control. […] The results are expressed as the mean ± s.e.m. values of two independent experiments
One day before transfection, the cells were seeded in 96-well plates at a density of 2.5 × 10^4 cells per well. […] At 24 h post transfection, the medium was aspirated and replaced with 100 μl OPTIMEM and incubated at room temperature. After a 10-min incubation, 25 μl substrate (furimazine) was added, and once every minute subsequent luminescence measurements were taken for 10 min for signal stabilization. A total of 10 μl ligand was then added to each well and luminescence measurements were recorded immediately and once every minute during 10 min for signal stabilization. After that time wells allocated for ligand removal, ligand containing medium was replaced for medium containing only furimazine substrate and no ligand. Immediately continued recording the time course luminescence values once every minute during 1 h.

[3] = system: galanin receptor 1 (Galr1); details: cited from earlier work
Text: as §1

[4] = system: luteinizing hormone (LH) secretion; details: cited from earlier work
Text: as §1

[5] = system: diet-induced obese rodents; details: cited from earlier work
Text: as §1

[6] = system: goldfish; details: cited from earlier work
Text: as §1

Molecule	food intake [1]	decrease in luminescence signal after ligand removal ([2]; 10 μM agonist, medium change, two independent experiments)	half-life (t1/2) of Galr2–β-arrestin2 complex luminescence decay after ligand removal ([2]; HEK293 cells, 10 μM agonist, washout, indirect measure of ligand dissociation, mean ± s.e.m. of two independent experiments) [min]	residence time relative to Galanin ([2]; reversal dissociation assay)	activation of Galr1 [3]	LH secretion, goldfish [4]	body weight [5]	appetite [6]
Galanin [reference compound]	food intake increase							
Spexin (peptide, UniProt Q9BT56 27-116, looked up, Spexin, endogenous peptide ligand of Galr2 and Galr3; synthesized by AnyGen) Spexin: APQRLLERRNWTPQAMLYLKGAQGRRFISDQSRRKDLSDRPLPERRSPNPQLLTIPEAATILLASLQKSPEDEEKNFDQTRFLEDSLLNW		rapid decrease in luminescence signal back to basal levels	3.35 ± 0.7	significantly shorter than Galanin	does not activate Galr1	attenuates LH secretion	weight loss	suppresses appetite
